Blank lines part the entries; values can stand above or below the molecule they belong to.
Assays:
[1] = target: T1, rhAxl-Fc chimera (recombinant human Axl) (Homo sapiens, UniProt P30530); experiment: Biacore surface plasmon resonance kinetic affinity determination on immobilized rhAxl-Fc; format: binding; conditions: chimeric antibodies, rhAxl immobilized on sensor chip, 25° C., 1:1 Langmuir binding model
T1 construct: Soluble recombinant antigens corresponding to the extracellular domains of members of the human TAM receptor family; purchased R&D Systems 154-AL
Experimental: (§1) Kinetic analysis of MAbs 10C9 and 10G5 interacting with rhAxl immobilized on the surface of the Biacore sensor chip. Overlay plots of sensograms for different antibody concentrations (1.3-666.7 nM for 10C9 and 0.3-166.7 nM for 10G5) are shown. The precise kinetic analysis was performed using BIA evaluation software and curve fitting according to 1:1 Langmuir binding model.
as §1, with “chimeric antibodies c10C9” for “MAbs 10C9”, “c10G5” for “10G5”, “c10C9” for “10C9”, “c10G5)” for “10G5)”
(§2) Affinity determination of anti-Axl antibodies 10C9 and 10G5 was performed at 25° C. by surface plasmon resonance measurements using Biacore 3000 instrument (GE Healthcare). As a solid antigen-coated surface, a sensor chip CM5 with immobilized rhAxl-Fc chimera (R&D Systems, Cat. no. 154-AL) at density 190 RU was used.
(§3) For the kinetics measurements, different concentrations of anti-Axl antibodies (from 0.3 to 666.7 nM) in HBS-EP buffer (Biacore, Cat. no. BR-1001-88) were injected at flow rate of 30 μL/min with 3 min injection time followed by 5 min dissociation (buffer alone). After each cycle, the surface was regenerated by 30 sec injection of a regeneration solution (10 mM HCl, 1 M NaCl) at flow rate 50 μL/min.
The kinetic association (on-rate, kon) and dissociation (off-rate, koff) rates were calculated using BIAevaluation software and 1:1 Langmuir binding model. The equilibrium dissociation constant (KD) was calculated as the koff/kon ratio. The half-life (t1/2) of the formed antibody-antigen complexes was calculated as the ln 2/koff ratio.
as §2, with “of the chimeric” for “of”, “c10C9” for “10C9”, “c10G5” for “10G5”
as §3, with “333.3” for “666.7”

[2] = target: T2, human Axl (rhAxl-Fc chimera) (Homo sapiens, UniProt P30530); experiment: Biacore binding analysis on immobilized human Axl; conditions: 10 μg/mL, 25° C.
T2 construct: Soluble recombinant antigens corresponding to the extracellular domains of members of the human TAM receptor family; purchased R&D Systems 154-AL
Experimental: (§4) All binding experiments were performed using Biacore 3000 instrument (GE Healthcare) at 25° C. Soluble recombinant antigens corresponding to the extracellular domains of members of the human TAM receptor family, Axl (rhAxl-Fc chimera; R&D Systems, Cat. no. 154-AL), Mer (rhMer-Fc chimera; R&D Systems, Cat. no. 891-MR) and Tyro3 (rhTyro3/Dtk-Fc chimera; R&D Systems, Cat. no. 859-DK) were immobilized on the surface of CM5 sensor chip using amine coupling at the surface density of 393.0, 303.6 and 364.0 resonance units (RU), respectively. The Biacore run was performed in an automatic mode using Binding analysis wizard. Samples containing either MAb 10C9 or MAb 10G5 at concentration 10 μg/mL in HBS-EP buffer (GE Healthcare) were injected over the surfaces with immobilized antigens at flow rate of 30 μL/min for 3 min (association) followed by 5 min dissociation.
(§5) The binding experiments were performed using Biacore 3000 instrument (GE Healthcare) at 25° C. The soluble recombinant antigens corresponding to human Axl (rhAxl-Fc chimera; R&D Systems, Cat. no. 154-AL), mouse Axl (rmAxl-Fc chimera; R&D Systems, R&D Systems; Cat. no. 854-AX) and human Tyro3 (rhTyro3/Dtk-Fc chimera; R&D Systems, Cat. no. 859-DK) were immobilized on the surface of CM5 sensor chip using amine coupling at the surface density of 1,308.0, 2,115.9 and 1,429.0 RU, respectively. The Biacore runs were performed in an automatic mode using Binding analysis wizard.
(§6) The sample containing either MAb 10C9, MAb 10G5 or recombinant mouse (rm) Axl-ligand Gas6 (R&D Systems, Cat. no. 986-GS/CF) at concentration 10 μg/mL in HBS-EP buffer (GE Healthcare) was injected over the surfaces with immobilized antigens at flow rate of 30 μL/min for 3 min (association) followed by 5 min dissociation.
The sequence of Axl receptor from cynomolgus monkey (Macaca fascicularis; SEQ ID NO.43) was retrieved from WO2009062690A1. Based on the sequence, recombinant extracellular domain of cyno-Axl was generated by transient expression in CHO cells as a fusion protein with human Fc. The recombinant cyno-Axl-Fc was purified to homogeneity using Protein A-Sepharose (GE Healthcare). The binding experiments were performed using Biacore 3000 instrument (GE Healthcare) at 25° C. The soluble recombinant antigens corresponding to human Axl (rhAxl-Fc chimera; R&D Systems, Cat. no. 154-AL) and cyno-Axl were immobilized on the surface of CM5 sensor chip using amine coupling at the surface density of 775 and 880 RU, respectively. The Biacore runs were performed in an automatic mode using Binding analysis wizard.
The sample containing either MAb 10C9, MAb 10G5 or human Axl-specific MAb 5F11 (control) at concentration 10 μg/mL in HBS-EP buffer (GE Healthcare) was injected over the surfaces with immobilized antigens at flow rate of 30 μL/min for 3 min (association) followed by 5 min dissociation.
In addition, the Axl-binding properties of the chimeric antibodies c10C9 and c10G5 were tested using Biacore 3000 instrument (GE Healthcare) and a sensor chip CM5 coated with human Axl (rhAxl-Fc chimera; R&D Systems, Cat. no. 154-AL) at the surface density of 1,308.0 RU. The Biacore runs were performed in an automatic mode using Binding analysis wizard. The samples comprising either the chimeric antibodies c10C9 and c10G5 or their murine counterparts at concentration 10 μg/mL in HBS-EP buffer (GE Healthcare) were injected over the surfaces with immobilized antigens at flow rate of 30 μL/min for 3 min (association) followed by 5 min dissociation.

[3] = tested on: Axl-positive breast cancer cell line MDA-MB-231; experiment: Flow cytometry binding to Axl-positive MDA-MB-231 cells; format: cell-based, human; conditions: different antibody concentrations, MFI
Experimental: Different concentrations of mouse and chimeric antibodies were tested in flow cytometry for binding to triple-negative breast cancer cell line MDA-MB-231. The bound mouse and chimeric antibodies were detected with APC-conjugated donkey F(ab′)2 fragments specific for either mouse IgG (H+L), 1:500 dilution, or human IgG (H+L), 1:300 dilution, respectively (both from Jackson ImmunoResearch). The cell staining was measured using Accuri C6 flow cytometer (BD Biosciences). MFI, geometric mean fluorescence intensity.
The purified chimeric antibodies (>95% purity) were analysed for binding to Axl-positive breast cancer cell line MDA-MB-231 in flow cytometry. For comparison, the parental mouse MAbs 10C9 and 10G5 were used. For flow cytometry, the adherent cells in culture were washed with PBS, detached by treatment with trypsin (0.25%) for 1 min and hitting culture dish for full detachment. Trypsin was quenched by adding into the tissue flask the complete medium followed by washing the cells with PBS. During the washing steps, the cells were collected by centrifugation at 200 g for 5 min. The antibody was diluted for total concentration in PBS containing 0.02% bovine serum albumin (BSA). Cell staining was performed using 200 μL of cell suspension comprising 10^5 cells for 20 min at room temperature. The cell-bound antibodies were detected with APC-conjugated donkey anti-human or anti-mouse, respectively, IgG (H+L) F(ab′)2 fragments (Jackson ImmunoResearch). After two washing steps with PBS/0.02% BSA, the cells were resuspended in 200 μL and kept on ice before analysis on Accuri C6 flow cytometer (BD Biosciences).

[4] = target: T3, human Tyro3 (rhTyro3/Dtk-Fc chimera) (Homo sapiens, UniProt Q06418); experiment: Biacore binding analysis on immobilized human Tyro3; conditions: 10 μg/mL, 25° C.
T3 construct: Soluble recombinant antigens corresponding to the extracellular domains of members of the human TAM receptor family; purchased R&D Systems 859-DK
T3 sequence (Q06418 41-429 limits assumed): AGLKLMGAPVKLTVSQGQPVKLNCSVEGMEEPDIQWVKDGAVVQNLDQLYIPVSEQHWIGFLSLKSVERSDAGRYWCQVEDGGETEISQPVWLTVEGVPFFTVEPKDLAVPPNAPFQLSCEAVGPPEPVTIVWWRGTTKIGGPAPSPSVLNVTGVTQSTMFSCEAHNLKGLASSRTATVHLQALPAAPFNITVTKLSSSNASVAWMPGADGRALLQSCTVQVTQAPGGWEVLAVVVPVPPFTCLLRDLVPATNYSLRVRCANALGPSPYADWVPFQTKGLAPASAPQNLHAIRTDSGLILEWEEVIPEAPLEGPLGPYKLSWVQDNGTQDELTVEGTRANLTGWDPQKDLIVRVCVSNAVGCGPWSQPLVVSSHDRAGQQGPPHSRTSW
Experimental: as §4, §5, §6

[5] = target: T4, mouse Axl (rmAxl-Fc chimera) (Mus musculus, UniProt Q00993); experiment: Biacore binding analysis on immobilized mouse Axl; conditions: 10 μg/mL, 25° C.
T4 construct: The soluble recombinant antigens corresponding to human Axl (rhAxl-Fc chimera; R&D Systems, Cat. no; 154-AL), mouse Axl (rmAxl-Fc chimera; purchased R&D Systems 854-AX
Experimental: as §5, §6

T4 sequence (Q00993 19-445 limits assumed, change not shown): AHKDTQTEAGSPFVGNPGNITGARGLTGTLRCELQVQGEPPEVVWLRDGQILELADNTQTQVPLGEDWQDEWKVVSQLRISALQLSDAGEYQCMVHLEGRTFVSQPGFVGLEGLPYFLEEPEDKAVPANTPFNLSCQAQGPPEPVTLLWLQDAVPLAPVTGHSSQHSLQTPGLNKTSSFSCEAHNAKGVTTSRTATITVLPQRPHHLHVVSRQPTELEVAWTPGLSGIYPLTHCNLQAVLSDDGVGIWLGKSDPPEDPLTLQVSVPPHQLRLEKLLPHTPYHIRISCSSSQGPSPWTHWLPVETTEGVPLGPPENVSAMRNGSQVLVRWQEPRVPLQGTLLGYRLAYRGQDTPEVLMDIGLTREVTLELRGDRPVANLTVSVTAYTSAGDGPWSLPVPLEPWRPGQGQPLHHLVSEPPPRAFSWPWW

Off-rate (koff; s^−1) [1]: 0.000219 s⁻¹
On-rate (kon; M^−1s^−1) [1]: 2.16e+06 M⁻¹ s⁻¹
B1: c10C9: chimeric (mouse variable/human constant) IgG1 counterpart of antibody 10C9 (antibody)
heavy: QVQLQQPGPELVKPGASVKISCKTSDYNFTRYYIHWVKQRPGQGLEWIGWIYPGTGDSKYNEKFKGRATLTADTSSSTAYMQLSSQTSEDSAVYFCARNGNYWYFDVWGAGTAVTVSS
light: DIVMTQAAPSGPVTPGESVSISCRSSKSLLHSNGNTYLYWFLQRPGQSPQLLIYRMSNLASGVPDRFSGSGSGTAFTLRISRVEAEDVGIYYCMQHREYPFTFGGGTKLEIK
modifications: left off: a dimerising Fc or GST
notes: chimeric (mouse variable/human constant) IgG1 counterpart of antibody 10C9
binding to human Axl [2]: bind immobilized Axl with profiles very similar to the binding profiles of the corresponding mouse antibodies
binding to MDA-MB-231 cells in flow cytometry [3]: Dose-dependent binding

binding to human Axl [2]: strong binding
binding to human Axl ([2]; listed as murine Gas 6): binds strongly
binding to human Tyro3 [4]: somewhat weaker binding
binding to human Tyro3 ([4]; listed as murine Gas 6): more weakly
binding to mouse Axl [5]: strong binding
binding to mouse Axl ([5]; listed as murine Gas 6): binds strongly
B2: mouse Gas6: recombinant mouse (rm) Axl-ligand Gas6 (R&D Systems), used as a control (protein)
chain: DQCTPNPCDKKGTHICQDLMGNFFCVCTDGWGGRLCDKDVNECVQKNGGCSQVCHNKPGSFQCACHSGFSLASDGQTCQDIDECTDSDTCGDARCKNLPGSYSCLCDEGYTYSSKEKTCQDVDECQQDRCEQTCVNSPGSYTCHCDGRGGLKLSPDMDTCEDILPCVPFSMAKSVKSLYLGRMFSGTPVIRLRFKRLQPTRLLAEFDFRTFDPEGVLFFAGGRSDSTWIVLGLRAGRLELQLRYNGVGRITSSGPTINHGMWQTISVEELERNLVIKVNKDAVMKIAVAGELFQLERGLYHLNLTVGGIPFKESELVQPINPRLDGCMRSWNWLNGEDSAIQETVKANTKMQCFSVTERGSFFPGNGFATYRLNYTRTSLDVGTETTWEVKVVARIRPATDTGVLLALVGDDDVVPISVALVDYHSTKKLKKQLVVLAVEDVALALMEIKVCDSQEHTVTVSLREGEATLEVDGTKGQSEVSTAQLQERLDTLKTHLQGSVHTYVGGLPEVSVISAPVTAFYRGCMTLEVNGKILDLDTASYKHSDITSHSCPPVEHAT
